Data as given in US20190225675A1 (TUFTS UNIVERSITY, published 2019).
Like-named read-outs stand apart in the source and are kept apart here.

Tests used:
[1] = biological target: anthrax protective antigen (PA) (Bacillus anthracis, UniProt P13423 30-764); test: legend of FIG. 29A: VHHs identified that bind each target as indicated
[2] = biological target: T1, Botulinum neurotoxin serotype A1 (BoNT/A) holotoxin (Clostridium botulinum, UniProt P0DPI0 2-1296); test: VHH selection; binding competition
T1 construct: mature

[3] = biological target: T2, Shiga-like toxin 2 (Stx2) (UniProt P09385 23-319; P09386 20-89)
T2 sequence 1: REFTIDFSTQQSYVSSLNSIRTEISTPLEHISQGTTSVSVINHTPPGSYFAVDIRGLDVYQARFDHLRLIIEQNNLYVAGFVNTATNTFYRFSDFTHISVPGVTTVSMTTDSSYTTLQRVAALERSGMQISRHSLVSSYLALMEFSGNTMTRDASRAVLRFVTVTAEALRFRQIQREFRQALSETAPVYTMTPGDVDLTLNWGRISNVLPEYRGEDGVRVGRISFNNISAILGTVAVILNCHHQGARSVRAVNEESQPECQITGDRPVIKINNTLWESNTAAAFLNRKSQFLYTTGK
T2 sequence 2: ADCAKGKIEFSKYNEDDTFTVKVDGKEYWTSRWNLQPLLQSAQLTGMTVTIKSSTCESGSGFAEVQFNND

[4] = biological target: T2, Shiga-like toxin 2 (Stx2); remark: listed apart in the source
[5] = biological target: T2, Shiga-like toxin 2 (Stx2); remark: listed apart in the source
[6] = biological target: T2, Shiga-like toxin 2 (Stx2); remark: listed apart in the source
[7] = biological target: T3, Clostridium difficile toxin A (TcdA) (Clostridium difficile, UniProt P16154 1-2710); test: ELISA on plates coated with TcdA, HRP-conjugated detection antibody, A450
T3 construct: mature
T3 sequence (P16154 whole entry): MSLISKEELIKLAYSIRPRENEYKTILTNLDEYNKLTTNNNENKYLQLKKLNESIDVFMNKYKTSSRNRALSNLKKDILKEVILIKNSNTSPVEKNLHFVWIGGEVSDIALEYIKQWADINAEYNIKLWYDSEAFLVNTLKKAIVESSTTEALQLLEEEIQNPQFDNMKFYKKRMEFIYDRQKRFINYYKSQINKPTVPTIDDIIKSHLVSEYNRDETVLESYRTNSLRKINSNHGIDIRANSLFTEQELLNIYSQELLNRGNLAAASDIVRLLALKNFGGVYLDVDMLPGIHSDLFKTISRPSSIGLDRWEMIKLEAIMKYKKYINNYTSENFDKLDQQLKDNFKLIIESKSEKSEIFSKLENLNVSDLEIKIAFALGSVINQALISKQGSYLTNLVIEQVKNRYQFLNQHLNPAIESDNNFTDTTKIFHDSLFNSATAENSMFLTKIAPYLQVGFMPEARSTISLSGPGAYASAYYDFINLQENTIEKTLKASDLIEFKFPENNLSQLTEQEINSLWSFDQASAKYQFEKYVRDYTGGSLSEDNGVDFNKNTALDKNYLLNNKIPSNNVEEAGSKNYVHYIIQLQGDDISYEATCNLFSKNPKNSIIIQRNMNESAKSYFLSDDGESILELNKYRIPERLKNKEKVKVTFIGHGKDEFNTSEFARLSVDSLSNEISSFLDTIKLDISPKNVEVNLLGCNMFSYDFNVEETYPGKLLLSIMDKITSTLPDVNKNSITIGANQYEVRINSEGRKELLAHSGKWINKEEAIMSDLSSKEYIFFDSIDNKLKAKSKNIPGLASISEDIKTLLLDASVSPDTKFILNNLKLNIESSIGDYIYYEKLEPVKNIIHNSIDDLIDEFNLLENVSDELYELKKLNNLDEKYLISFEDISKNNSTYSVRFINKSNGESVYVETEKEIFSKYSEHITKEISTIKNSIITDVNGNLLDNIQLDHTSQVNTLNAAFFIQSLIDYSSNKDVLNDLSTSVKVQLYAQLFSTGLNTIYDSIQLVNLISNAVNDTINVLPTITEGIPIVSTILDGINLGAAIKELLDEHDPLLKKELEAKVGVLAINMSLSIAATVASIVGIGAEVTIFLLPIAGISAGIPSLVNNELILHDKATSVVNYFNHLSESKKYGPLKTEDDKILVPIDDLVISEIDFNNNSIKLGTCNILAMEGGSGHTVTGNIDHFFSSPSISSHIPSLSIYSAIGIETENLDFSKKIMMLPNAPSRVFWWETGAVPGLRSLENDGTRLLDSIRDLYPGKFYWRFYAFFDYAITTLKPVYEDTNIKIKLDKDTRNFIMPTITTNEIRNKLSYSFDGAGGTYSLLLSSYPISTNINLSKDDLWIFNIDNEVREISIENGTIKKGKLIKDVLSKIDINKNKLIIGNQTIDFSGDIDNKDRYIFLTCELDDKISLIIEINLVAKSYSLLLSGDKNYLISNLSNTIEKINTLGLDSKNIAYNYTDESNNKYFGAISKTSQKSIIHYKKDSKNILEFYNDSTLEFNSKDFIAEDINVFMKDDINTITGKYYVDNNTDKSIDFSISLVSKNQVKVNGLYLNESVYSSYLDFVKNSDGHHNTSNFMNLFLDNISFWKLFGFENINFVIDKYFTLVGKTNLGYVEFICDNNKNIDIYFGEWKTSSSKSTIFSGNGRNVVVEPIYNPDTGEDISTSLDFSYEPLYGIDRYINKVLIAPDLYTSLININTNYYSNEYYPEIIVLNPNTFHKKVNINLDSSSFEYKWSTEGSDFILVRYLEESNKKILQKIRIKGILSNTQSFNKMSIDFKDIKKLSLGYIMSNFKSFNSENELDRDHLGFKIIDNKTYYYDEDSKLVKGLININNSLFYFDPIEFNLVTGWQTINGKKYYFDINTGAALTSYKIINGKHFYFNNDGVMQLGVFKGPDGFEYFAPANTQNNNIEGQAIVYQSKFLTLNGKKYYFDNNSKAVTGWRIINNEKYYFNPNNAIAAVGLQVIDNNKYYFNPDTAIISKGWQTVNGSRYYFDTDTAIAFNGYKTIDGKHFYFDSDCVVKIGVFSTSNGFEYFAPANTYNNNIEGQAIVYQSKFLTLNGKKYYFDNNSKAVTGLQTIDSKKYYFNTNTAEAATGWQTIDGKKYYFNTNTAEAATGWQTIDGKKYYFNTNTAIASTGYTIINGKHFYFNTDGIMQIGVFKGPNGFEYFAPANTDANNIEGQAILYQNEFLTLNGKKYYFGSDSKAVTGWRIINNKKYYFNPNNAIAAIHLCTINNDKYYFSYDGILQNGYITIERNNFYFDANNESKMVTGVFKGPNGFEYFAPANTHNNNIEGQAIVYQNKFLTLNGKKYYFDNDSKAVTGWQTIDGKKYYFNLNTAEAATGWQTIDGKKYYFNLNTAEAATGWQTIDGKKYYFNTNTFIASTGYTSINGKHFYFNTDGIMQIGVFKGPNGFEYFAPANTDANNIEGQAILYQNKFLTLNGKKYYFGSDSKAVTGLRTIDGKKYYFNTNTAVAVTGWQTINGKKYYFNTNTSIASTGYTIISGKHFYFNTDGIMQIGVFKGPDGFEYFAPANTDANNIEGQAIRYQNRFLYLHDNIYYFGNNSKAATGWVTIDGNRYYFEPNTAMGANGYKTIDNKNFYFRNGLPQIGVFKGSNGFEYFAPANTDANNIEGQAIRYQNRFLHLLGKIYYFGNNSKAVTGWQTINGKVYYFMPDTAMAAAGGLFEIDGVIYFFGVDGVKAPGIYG

[8] = biological target: T4, Clostridium difficile toxin B (TcdB) (Clostridium difficile, UniProt P18177 2-2366); test: ELISA, toxin-coated plates, HRP-conjugated detection antibody
T4 construct: mature

[9] = biological target: T1, Botulinum neurotoxin serotype A1 …; test: method not stated

anthrax protective antigen (PA), sequence (P13423 30-764 limits assumed): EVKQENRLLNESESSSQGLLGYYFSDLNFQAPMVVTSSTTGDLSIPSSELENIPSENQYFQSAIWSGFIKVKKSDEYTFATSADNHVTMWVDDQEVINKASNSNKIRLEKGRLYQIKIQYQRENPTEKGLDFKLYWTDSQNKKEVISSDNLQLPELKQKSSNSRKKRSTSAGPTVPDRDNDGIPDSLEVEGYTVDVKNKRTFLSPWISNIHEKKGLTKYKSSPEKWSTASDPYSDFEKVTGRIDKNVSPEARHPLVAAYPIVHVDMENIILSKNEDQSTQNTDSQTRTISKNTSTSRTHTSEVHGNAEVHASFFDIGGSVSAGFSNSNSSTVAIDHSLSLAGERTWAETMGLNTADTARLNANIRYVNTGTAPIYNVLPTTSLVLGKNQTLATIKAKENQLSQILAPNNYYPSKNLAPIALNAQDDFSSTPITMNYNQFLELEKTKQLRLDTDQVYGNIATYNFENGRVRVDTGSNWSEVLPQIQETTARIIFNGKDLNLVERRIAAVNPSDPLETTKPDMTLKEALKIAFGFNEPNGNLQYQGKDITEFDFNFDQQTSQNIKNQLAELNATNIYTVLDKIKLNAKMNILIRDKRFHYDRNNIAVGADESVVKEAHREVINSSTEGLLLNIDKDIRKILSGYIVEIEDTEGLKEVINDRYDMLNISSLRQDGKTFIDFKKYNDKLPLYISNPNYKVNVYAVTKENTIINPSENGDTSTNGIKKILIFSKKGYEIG

B1: JIJ-E9 (VHH)
VHH: QVQLVETGGLVQPGGSLRLSCAASRSTTATIYSMNWYRQAPGKQRELVAGMTSDGQTNYATSVKGRFTISRDNAKNTVYLLMNSLKLEDTAVYYCYVKPWRLQGWDYWGQGTQVTVSS
binding result [1]: binds

B2: JIJ-C11 (VHH)
VHH: QVQLVETGGGLVQPGGSLGLSCVVASGRSINNYGMGWYRQAPGKQRELVAQISSGGTTNYAGSVEGRFTISRDNVKKMVYLQMNSLKPEDTAVYYCNSLLRTFSWGQGTQVTVSS
binding result [1]: binds

B3: JIK-B8 (VHH)
VHH: QVQLVESGGGLVQPGGSLGLSCVVASERSINNYGMGWYRQAPGKQRELVAQISSGGTTNYADSVEGRFTISRDNVKKMVHLQVNSLKPEDTAVYYCNSLLRTFSWGQGTQVTVSS
binding result [1]: binds

B4: JDQ-B2 (VHH)
VHH: QVQLVESGGGLVQPGGSLRLSCTVSGSIFDLPGMNWYRQAPGAQRELVADISSDGRRTNYADSVKGRFTMSRDNAKKTVYLQMDSLKPDDTAVYYCNVKFTHHWGQGIQVTVSS
binding result [2]: binds

B5: JDQ-C5 (VHH)
VHH: QVQLVESGGGLVQPGGSLRLSCTVSGSIFGLPGMSWYRQAPGAQRELVADISSDGGRTHYADSVKGRFTISRDNDKKTVYLQMDSLKPDDTAVYYCNVKFTHHWGQGIQVTVSS
binding result [2]: binds

B6: JIJ-A12 (VHH)
VHH: QVQLVESGGGLVQPGGSLRLSCAASGIIFSIYTMGWYRQAPGKQRELVAAIPSGPSANATDSVGGRFTITRDNAENTVYLQMNDLKPEDTAVYYCNARRGPGIKNYWGQGTQVTVSS
binding result [1]: binds

B7: JHE-D9 (VHH)
VHH: QVQLVESGGGLVQPGGSLRLSCAASGFIFSLYTMRWHRQAPGKERELVATITSATGITNYADSVKGRFIISRDDAKKTGYLQMNSLKPEDTAVYYCNAVRTTVSRDYWGQGTQVTVSS
binding result [1]: binds

B8: JIK-B12 (VHH)
VHH: QVQLVESGGGLVQAGNSLRLSCTASGVIFSIYTMGWFRQAPGKEREFVAAIGVADGTALVADSVTGRFTISRDNAKNTVYLHMNSLKPEDTAVYSCAAYLSPRVQSPYITDSRYQLWGQGTQVTVSS
binding result [1]: binds

B9: JIJ-F11 (VHH)
VHH: QVQLVESGGGLVQPGGSLRLSCAAPESIVNSRTMAWYRQAPGKQRERVATITTAGSPNYADSVKGRFAISRDNAKNTVYLQMNSLKPEDTAVYYCNTLLSTLPYGQGTQVTVSS
binding result [1]: binds

B10: Stx2-D10 (VHH)
VHH: TGGLVQAGGSLRLSCAASGVPFSDYTMAWFRQAPGKEREVVARITWRGGGPYYGNSGNGRFAISRDIAKSMVYLHMDSLKPEDTAVYYCAASRLRPALASMASDYDYWGQGTQVSVSS
EC50 (read off the curve) [3]: ~0.3 nM | EC50 (read off the curve) [4]: ~0.3 nM

B11: Stx-A5 (VHH)
VHH: SGGGLVQPGGSLRLSCAALEFTLEDYAIAWFRQAPGKEREGVSCISKSGVTKYTDSVKGRFTVARDNAKSTVILQMNNLRPEDTAVYNCAAVRPVFVDSVCTLATRYTYWGEGTQVTVSS
EC50 (read off the curve) [5]: ~0.8 nM | EC50 (read off the curve) [6]: ~0.8 nM | EC50 (read off the curve) [4]: ~0.8 nM

B12: JHD-B6 (VHH)
VHH: QVQLVESGGGLVQPGGSLRLSCAASGSSFSRYAMRWYRQAPGKQRELVANINSRGTSNYADSVKGRFTISRDNAKNTVYLQMNSLKPEDTAVYYCNAEWLGRSEPSWGQGTQVTVSS
binding result [1]: binds

B13: JIJ-B8 (VHH)
VHH: QVQLVESGGGLVQPGGSLSVSCAASGSIARPGAMAWYRQAPGKERELVASITPGGLTNYADSVTGRFTISRDNAKRTVYLQMNSLQPEDTAVYYCHARIIPLGLGSEYRDHWGQGTQVTVSS
binding result [1]: binds

B14: VNA-TcdA (toxin A binding heterodimer, AH3+AA6) (bispecific antibody)
chain: QGVQSQLQLVESGGGLVQPGGSLRLSCAASGFTLDYSSIGWFRQAPGKEREGVSCISSSGDSTKYADSVKGRFTTSRDNAKNTVYLQMNSLKPDDTAVYYCAAFRATMCGVFPLSPYGKDDWGKGTLVTVSSEPKTPKPQGGGGSGGGGSGGGGSQGVQSQVQLVESGGGLVQPGGSLRLSCAASGFTFSDYVMTWVRQAPGKGPEWIATINTDGSTMRDDSTKGRFTISRDNAKNTLYLQMTSLKPEDTALYYCARGRVISASAIRGAVRGPGTQVTVSSEPKTPKPQ
EC50 (read off the curve) [7]: ~2 nM | binding result [8]: no binding (tested: up to 125 nM)

B15: Stx-A4 (VHH)
VHH: SGGGLVQPGGSLRLSCAASGFTLGSYHIGWFRHPPGKEREGTSCLSSRGDYTKYAEAVKGRFTISRDNTKSTVYLQMNNLKPEDTGIYVCAAIRPVLSDSHCTLAARYNYWGQGTQVTVSS
EC50 (read off the curve) [6]: ~8 nM

B16: JIK-B10 (VHH)
VHH: QVQLVETGGGLVQPGGSLRLSCAASGFTFSSYRMSWYRQAAGKERDVVATITANGVPTGYADSVMGRFTISRDNAKNTVYLEMNSLNPEDTAVYYCNAPRLHTSVGYWGQGTQVTVSS
binding result [1]: binds

B17: scFv#7 (scFv)
scFv: SYELTQPPSMSVALGQTAKVTCQGDNLENFYVQWHQQKPGQAPVTVIFQDNKRPSGIPDRFSGSNSGNTATLTISGARTEDEADYYCQSGHSSIGGVFGSGTSLTVLGQPAAAGGGGSGGGGSGGGGSARQVQLQESGPSLVKPSQTLSLTCTVSGFSLTGNSVTWVRQAPGNVPEWLGGISRGGRTYYDTALKSRLSITRDTSKRQVSLSLSSVTTEDTAMYFCARSAYSTLYDYEYAADIYDWGPGLLVTVSSTSGAPVPYPDPLEPRAA
Kd [9]: ~1 nM

B18: Stx2-G1 (VHH)
VHH: SGGGLVQPGESLRLSCVASASTFSTSLMGWVRQAPGKGLESVAEVRTTGGTFYAKSVAGRFTISRDNAKNTLYLQMNSLKAEDTGVYYCTAGAGPIATRYRGQGTQVTVSS
EC50 (read off the curve) [5]: ~0.1 nM | EC50 (read off the curve) [3]: ~0.1 nM

B19: JDQ-F9 (VHH)
VHH: QVQLVESGGGLVQDGGSLRLSCTTSGSIDSFNAIEWYRQAPGKQRELVASISSDGRRTNYADSVKGRFTISGDNAKNTVYLQMNSLKPEDTAVYYCHRPFTHYWGQGTQVTVSS
binding result [2]: binds

B20: JDO-E9 (VHH)
VHH: QVQLVESGGGLVRPGGSLRLSCVVSGFAYEMPMMGWYRQAPGNQRELVATIGTGGRMNYADSVKGRFTISRDNAKNTVYLQMNSLKPEDTAAYYCKIEFTNYWGQGTQVTVSS
binding result [2]: binds

B21: JIK-F4 (VHH)
VHH: TGGGLVQAGGSLRLSCAASGRYAMGWFRQAPGKEREFVATISRSGAIREYADSVKGRFTISRDGAENTVYLEMNSLKPDDTAIYVCAEGRGATFNPEYAYWGQGTQVTVSS
binding result [1]: binds

B22: JIJ-D3 (VHH)
VHH: QVQLVETGGLVQPGGSLRLSCAASGLTFSSTAMAWFRQAPGKEREFVARISGAGITIYYSDSVKDRFTISRNNVENTVYLQMNSLKTEDTAVYYCAARRNTYTSDYNIPARYPYWGQGTQVTVSS
binding result [1]: binds
